Target: His-tagged-YFP-PKI-NES
Assay: fluorescence polarisation

Row | Kd | Substance
1 | 25 nM | CRM1 1–1062 + VLV > AAA (from UniProt Q6P5F9 1-1062) (domain or fragment)
2 | 200 nM | CRM1 HEAT 9 loop variant (VLV > AAA) (from UniProt Q6P5F9 1-1071) (natural protein)
3 | 15600 nM | wild type mouse CRM1 (1–1071) (from UniProt Q6P5F9 1-1071) (natural protein)
4 | 1700 nM | CRM1-1–1062 (from UniProt Q6P5F9 1-1062) (domain or fragment)
